From publication PMC7594292, “Two conformations of DNA polymerase D-PCNA-DNA, an archaeal replisome complex, revealed by cryo-electron microscopy” (BMC Biology, 2020)
Blank lines part the entries; values can stand above or below the molecule they belong to.

Columns and labels:
[1] = target: Thermococcus kodakarensis proliferating cell nuclear antigen PCNA1 (TkoPCNA), homotrimer (UniProt Q5JF32); assay: SPR; details: PCNA immobilized on a sensor chip, PolD at 500 nM, read off a plot
[2] = target: the molecule itself; assay: cryo-EM structure; PolD-PCNA-primed DNA complex reconstituted from purified proteins without Mg2+ and isolated by gel filtration; Form A with DNA (25/35) at 6.9 Å, Form A and Form B with DNA (30/45); crystal structures and homology models fitted
[3] = target: T1, PolDΔKR: PolD with DP1(K326A K328A) and DP2(K432A R434A R781A) (Thermococcus kodakarensis, DP1 residue 328 is Ala (wild type printed as both K328 and R328, so the Ala is spliced in; the mutagenic primer encodes Ala-Val-Ala at 326-328). DP2 is the mature intein-free form (1324 aa). Zn bound …); assay: SPR
[4] = target: T2, PolDΔPIP: PolD with DP2(Δ1314-1324) (Thermococcus kodakarensis); assay: SPR
[5] = target: T3, PolDΔPIPΔKR: PolD with DP1(K326A K328A) and DP2(K432A R434A R781A, Δ1314-1324) (Thermococcus kodakarensis, UniProt Q5JET0 1-1313, K432A | R434A | R781A, DP1 residue 328 is Ala (wild type printed as both K328 and R328, so the Ala is spliced in). DP2 is the mature intein-free form, residues 1-1313 (PIP box 1314-1324 deleted; mature 1313 = precursor …); assay: SPR
[6] = target: T4, Thermococcus kodakarensis DNA polymerase D (PolD), wild type, DP1-DP2 heterodimer (Thermococcus kodakarensis); assay: SPR
[7] = target: T1, PolDΔKR: PolD with DP1(K326A K328A) and …; assay: SPR; remark: listed apart in the source
[8] = target: T2, PolDΔPIP: PolD with DP2(Δ1314-1324); assay: SPR; remark: listed apart in the source
[9] = target: T3, PolDΔPIPΔKR: PolD with DP1(K326A K328A) …; assay: SPR; remark: listed apart in the source
[10] = target: T4, Thermococcus kodakarensis DNA …; assay: SPR; remark: listed apart in the source
[11] = target: DP1 (PolD small subunit);DP2 (PolD large subunit);TkoPCNA (PCNA1) (Thermococcus kodakarensis;Thermococcus …, UniProt Q5JET1;Q5JET0;Q5JET0;Q5JF32 1-735;1-963;1438-1798;1-249, ||); assay: gel filtration; 50 mM NaCl elution; EMSA: 20 mM Tris-HCl pH 8.0, 10 mM KCl, 10 mM (NH4)2SO4, 1 mM DTT, 0.1 mg/ml BSA, 2 mM MgCl2, 40 C 10 min, 0.8% agarose 0.1x TAE; EM complex: 50 mM Tris-HCl pH; details: protein: recombinant;recombinant;recombinant; tags: ;;; copies: 1;1;1;3; primer-template, 5' overhang 15 nt on template
Sequence of DP1 (PolD small subunit);DP2 (PolD large subunit);TkoPCNA (PCNA1) (Q5JET0 1-963, one chain of several): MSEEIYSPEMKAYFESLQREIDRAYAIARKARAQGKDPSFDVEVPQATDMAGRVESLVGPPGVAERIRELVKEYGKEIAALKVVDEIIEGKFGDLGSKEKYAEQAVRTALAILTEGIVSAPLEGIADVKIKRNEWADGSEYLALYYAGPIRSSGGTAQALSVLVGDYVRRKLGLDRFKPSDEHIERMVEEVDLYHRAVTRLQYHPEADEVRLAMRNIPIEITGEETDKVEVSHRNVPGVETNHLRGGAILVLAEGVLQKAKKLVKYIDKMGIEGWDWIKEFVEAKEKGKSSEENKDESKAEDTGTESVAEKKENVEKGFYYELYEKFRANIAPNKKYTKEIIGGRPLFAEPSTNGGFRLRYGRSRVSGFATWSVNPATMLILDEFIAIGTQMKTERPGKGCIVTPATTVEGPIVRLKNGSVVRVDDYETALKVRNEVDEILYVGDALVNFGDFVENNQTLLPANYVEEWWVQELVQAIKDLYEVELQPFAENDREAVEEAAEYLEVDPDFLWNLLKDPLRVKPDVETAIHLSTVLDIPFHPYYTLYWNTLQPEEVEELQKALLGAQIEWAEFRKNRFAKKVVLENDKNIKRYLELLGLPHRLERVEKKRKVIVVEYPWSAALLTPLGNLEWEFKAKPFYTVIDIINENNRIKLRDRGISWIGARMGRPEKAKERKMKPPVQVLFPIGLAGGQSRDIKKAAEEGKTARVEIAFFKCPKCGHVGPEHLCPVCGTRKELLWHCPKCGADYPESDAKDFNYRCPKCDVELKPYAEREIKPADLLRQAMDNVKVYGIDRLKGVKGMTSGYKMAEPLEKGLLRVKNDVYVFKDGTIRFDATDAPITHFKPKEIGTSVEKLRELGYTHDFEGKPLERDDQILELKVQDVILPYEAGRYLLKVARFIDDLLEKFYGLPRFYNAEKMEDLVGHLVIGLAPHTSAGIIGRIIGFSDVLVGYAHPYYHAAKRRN

[12] = target: T5, DP1 (PolD small subunit);DP2CTD (Thermococcus kodakarensis;Thermococcus …, UniProt Q5JET1;Q5JET0 1-735;1474-1798, |); assay: EMSA; 2 mM MgCl2; EMSA: 20 mM Tris-HCl pH 8.0, 10 mM KCl, 10 mM (NH4)2SO4, 1 mM DTT, 0.1 mg/ml BSA, 2 mM MgCl2, 40 C 10 min, 0.8% agarose 0.1x TAE; EM complex: 50 mM Tris-HCl pH; details: protein: recombinant;recombinant; tags: ;His; copies: 1;1; label: 5' Cy5 on primer; primer-template, 5' overhang 13 nt on template
T5 sequence 1: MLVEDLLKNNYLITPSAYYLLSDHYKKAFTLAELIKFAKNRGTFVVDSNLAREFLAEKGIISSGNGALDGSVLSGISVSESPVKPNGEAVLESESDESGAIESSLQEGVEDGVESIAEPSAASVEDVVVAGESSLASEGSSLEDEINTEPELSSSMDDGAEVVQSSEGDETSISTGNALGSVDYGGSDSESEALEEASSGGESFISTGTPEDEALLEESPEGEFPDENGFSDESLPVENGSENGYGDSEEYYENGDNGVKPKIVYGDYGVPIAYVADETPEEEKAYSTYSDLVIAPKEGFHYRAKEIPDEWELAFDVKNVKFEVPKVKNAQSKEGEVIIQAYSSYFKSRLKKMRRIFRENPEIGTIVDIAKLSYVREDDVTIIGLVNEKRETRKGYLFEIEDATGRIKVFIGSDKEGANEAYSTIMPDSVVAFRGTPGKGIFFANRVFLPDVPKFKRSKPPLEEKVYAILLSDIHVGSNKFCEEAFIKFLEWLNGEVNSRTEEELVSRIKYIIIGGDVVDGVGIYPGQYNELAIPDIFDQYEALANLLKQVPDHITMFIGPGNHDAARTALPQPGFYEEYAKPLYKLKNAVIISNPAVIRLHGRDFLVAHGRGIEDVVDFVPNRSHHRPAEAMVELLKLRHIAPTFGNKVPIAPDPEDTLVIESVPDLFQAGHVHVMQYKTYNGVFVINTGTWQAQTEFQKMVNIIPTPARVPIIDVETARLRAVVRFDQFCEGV
T5 sequence 2: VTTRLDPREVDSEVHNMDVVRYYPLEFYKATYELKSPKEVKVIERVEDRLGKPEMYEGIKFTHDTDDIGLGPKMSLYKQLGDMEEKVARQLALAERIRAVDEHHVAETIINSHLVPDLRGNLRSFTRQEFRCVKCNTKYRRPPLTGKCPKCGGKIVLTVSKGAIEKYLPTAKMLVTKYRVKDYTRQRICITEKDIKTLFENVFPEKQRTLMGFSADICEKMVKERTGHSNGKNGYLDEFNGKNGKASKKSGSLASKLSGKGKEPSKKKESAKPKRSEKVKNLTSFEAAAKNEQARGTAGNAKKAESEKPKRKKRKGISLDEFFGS

[13] = target: T6, DP2CTD (Thermococcus kodakarensis, UniProt Q5JET0 1474-1798); assay: EMSA; 2 mM MgCl2; readily detectable but weaker than DP1-DP2CTD; EMSA: 20 mM Tris-HCl pH 8.0, 10 mM KCl, 10 mM (NH4)2SO4, 1 mM DTT, 0.1 mg/ml BSA, 2 mM MgCl2, 40 C 10 min, 0.8% agarose 0.1x TAE; EM complex: 50 mM Tris-HCl pH; details: protein: recombinant; tags: His; label: 5' Cy5 on primer; primer-template, 5' overhang 13 nt on template
T6 sequence: T5 sequence 2

B2: primed DNA (30/45) (dsDNA)
DNA 1: CGAACTGCCTGGAATCCTGACGACATGTAG
DNA 2: TGAGGTGATCGTTCGCTACATGTCGTCAGGATTCCAGGCAGTTCG
modifications: four successive phosphorothioates near the 3' end of both strands
binding result [11]: binds

B3: primed DNA Cy5-pri32/temp45 (dsDNA)
DNA 1: CGAACTGCCTGGAATCCTGACGACATGTAGCG
DNA 2: B2 DNA 2
binding result [12]: binds
binding result [13]: binds

Second part, led by results:

response ([1]; parent: est. 700): 150 RU
Molecule: PolDΔPIP: PolD with DP2(Δ1314-1324) DP1:K326A; DP1:K328A; DP2:K432A; DP2:R434A; DP2:R781A

response ([1]; parent: est. 1050): 450 RU
Molecule: Thermococcus kodakarensis DNA polymerase D (PolD), wild type, DP1-DP2 heterodimer DP1:K326A; DP1:K328A; DP2:K432A; DP2:R434A; DP2:R781A

koff [4]: 0.006 s⁻¹
koff [5]: 0.016 s⁻¹
koff [6]: 0.0048 s⁻¹
Kd [8]: 1300 nM
Kd [9]: 12000 nM
Kd [10]: 480 nM
B1: Thermococcus kodakarensis proliferating cell nuclear antigen PCNA1 (TkoPCNA), homotrimer (natural protein)
chain: MPFEVVFDGAKEFADLIATASNLIDEAAFKFTEEGISMRAMDPSRVVLIDLNLPESIFSKYEVEEPETIGINMDQFKKILKRGKAKDTLILRKGDENFLEITFEGTAKRTFRLPLIDVEELELELPELPFTAKVVLLGEVLKEGIKDASLVSDAIKFIAKENEFTMKAEGETNEVEIRLTLEDEGLLDLEVEEETKSAYGIRYLSDMVKGIGKADEVILRFGNEMPLQMEYMIRDEGRLTFLLAPRVEE
notes: source: purified as described previously [23]
stoichiometry N [2]: 3
koff [3]: 0.0087 s⁻¹
Kd [7]: 4500 nM
